# Laboratory results taken from the DeepSol protein solubility set.
# Test: soluble on expression in E. coli; label from the status in PepcDB or PDB records
row,Sequence,soluble on expression in E. coli
1,MSLAQINVAILGAGRIAQSMAETLVKMAADDRYRDLVAPYAVAARDGERAAAFAAKYGFPVSYGSYEELVADPNVNLVYIATPHNFHAEQAILCMRAGKGVLVEKAFGANTQQAREILDVSDETGMLCTEAIWTRYMPSRGMIDDIIASGVIGEVQAIDANLCYPTTAKARITDPALAGGALLDVGVYPINFIDMIMHNAPIARVESSMQPYETGVDAHNSMTFYYQNGVMATAQSSILCHSDRMGAVWGTEGYLTCQNINNVEAIDMFDGSHAVTAHYDVPEQLTGYEYEVASTAQAMLDGRTECDEMPHSDTLRIMECMDSLRADWGLKYPFEAEGHHHHHH,soluble
2,SANSGEGKVVCVTGASGYIASWLVKFLLSRGYTVKASVRDPSDPKKTQHLVSLEGAKERLHLFKADLLEQGSFDSAIDGCHGVFHTASPFFNDAKDPQAELIDPAVKGTLNVLNSCAKASSVKRVVVTSSMAAVGYNGKPRTPDVTVDETWFSDPELCEASKMWYVLSKTLAEDAAWKLAKEKGLDIVTINPAMVIGPLLQPTLNTSAAAILNLINGAKTFPNLSFGWVNVKDVANAHIQAFEVPSANGRYCLVERVVHHSEIVNILRELYPNLPLPERCVDENPYVPTYQVSKDKTRSLGIDYIPLKVSIKETVESLKEKGFAQF,soluble
3,MSLADFTHLLRPSNFDELIGQDHLSKDKAPLRVLCQKGVLGHSFFFGPSGTGKTSIARIIAKTMELPFYEFNATSIKIEQLRAIFEQYKNTLQKPLIFIDEVHRLAKNQQEVLLPVMENNSALIIGASTENPFFSLTSAIRSRSMLFELHHISNEALSRLLRRALDSSDITCSDEALEYLIKSSGGDARSMLKLLEFASNIGTHITLDILKSLRPNALSVGSSEAGVHYDLSSAMIKSIRGSDMDAAIYYLARLIDGGESAEFIARRLVILASEDVGNANPQALTLATSAMTSVSKIGYPEARIILSQAVIYLCASPKEGHHHHHH,not soluble
4,MGSDKIHHHHHHMLRKDIGIDLGTANTLVFLRGKGIVVNEPSVIAIDSTTGEILKVGLEAKNMIGKTPATIKAIRPMRDGVIADYTVALVMLRYFINKAKGGMNLFKPRVVIGVPIGITDVERRAILDAGLEAGASKVFLIEEPMAAAIGSNLNVEEPSGNMVVDIGGGTTEVAVISLGSIVTWESIRIAGDEMDEAIVQYVRETYRVAIGERTAERVKIEIGNVFPSKENDELETTVSGIDLSTGLPRKLTLKGGEVREALRSVVVAIVESVRTTLEKTPPELVSDIIERGIFLTGGGSLLRGLDTLLQKETGISVIRSEEPLTAVAKGAGMVLDKVNILKKLQGAG,not soluble
5,MKTWLTTLILSLSTLGLAHADVATTQQNLKKNFPEIPVSAVNTTPVKGVYEVITEGQIVYTNDDAQYFFVGNLVDPKNQRNLTAERMQQLNKIDVSTLPLNQAIKHVKGNGKRTLYIFSDPDCPYCQRLEKELTAVDNVTIYLFLFPLTTLHPNAETIATQIWCSKNQYQAWQDYLLNHKAPTASQKCSTPIQKNLALGQKLNINGTPTMYLKNGERIAGAMQAGQLNTLLDQAQ,not soluble
6,MKAKTDFFHMKQAGEPIVMVTAYDFPSAKLAEQAGVDMILVGDSLGMVVLGYDSTIPVTVDDMIHHTKAVRRGAPNTFIVTDMPFMSYHASKEEALQNARRIMQESGANAVKVEGADEVVDMIAALTKAGVPVVAHLGLTPQSVGVLGGYKVQGKDAESAKKLLDDAKQCEQAGAIALVLECVPKQLGAAMARELTIPVIGIGAGAEVDGQVLVYHDLLGYGVTRVPKFVKQYASIQETIVEALANYVADVKLRQFPEPAHTFTMKEEEWVALYGGKQG,not soluble
7,MGSDKIHHHHHHMVKGLDMIFYLHGFDATSPGNHEKMRQLQFIDPDVRLLSYSTLHPKHDMQHLLKEVAKQMQHTDDPEPLMVGVGLGAYWAERIGFLNGLKSVLINPNLHPENNMQGKIDRPEEYADIASKCVSEFRLKNTHRAMCIFSVNDDVLDCKANAQELSEYYAIEWDDVQPHKFPQLAAHLPKIKAFKLA,not soluble
8,SKGFIDQYPNYSVGLGNLRSLKGDTCNLANDVLVETNTNESFLTPLTGTLGDSLTNDDVRGFDPNRISPWAFTPENRPEALGAANSTGDGSDTAAADSDASNTAAGADSDGSAAKADAASDNQEEAAKKKETHRADQGVNGSHSRLPFNLDYRTVPVLGSWTDGKQEIAEATSSWFKLPKANDNTPLVVVSAAGSIKHKDVNGIVENGQKIVLEYGRSNTGGSLGKAEKLGELDLLDSGIDSTWRNLRIPLSDIPDDADVIRIHAKDTSLDPDEWIAFTPPRVPTMDTLANQFPASTPGLLDWAVPLQFPCQRTFNHYAGVAEIPEYRISADAKGKQSGMNFQDFAGGGVTGIAETINSSYELPSYSKNDWVRDWGSIKMYKLRTNSKGEAPDVATVDTETITRSGLWYPGRMNIDTKVTKN,not soluble
9,MSLNKEPDPPLAESLRPQHIDEVIGQSHLLGEGKPLRLCFMGSKLHSMILWGPPGVGKTTIARLTAQAFDCEWIALSAVFSGVKDIRAAVEKAQEYLIHDKQTILFIDEIHRFNKAQQDALLPYTESGLITFIGATTENPSFEVNSALLSRAQVYVLKPLSEQELKLLFLRAHQRALSSLQFTEEAVDFLISCADGDARRLLNLLEQTKTACLTIKTAVVDVELLHNVIVQNSRRFDKGGEAFYDQISALHKSVRGSNPDAALYWLCRMLDGGVDPYYLARRIIRMSWEDIGLADPKAIQIANDAAATYERLGSPEGELALAQAVIYLSVAAKSNAGYVAFNQAMEFIKRDKSREVPIHLRNAPTQLMKKLGYGHEYRYAHDEPHGYAAGECYLPEGMPEVNWYNPVQRGLETKIAEKLAFLRQLDKDVKKEGHHHHHH,soluble
10,MPRTVTHNPDSPNNDDVLAASEKWDACKPPYTSAHMKICVAAAKIILAASGVARCSKYEKENYLRIDFSKAGKVTFYAEFPKKMGLKGKKLGEWPELVIQLAREKALGMADGGLRAESVHAALEMYRDDPKPK,not soluble
11,QVKPFSFVRDTDPVQLVNFLQSEHPQTIAVVLSYLDPPVAAQILGALPEELQTEVLKRIALLERTSPEVVKEIERNLEKKISGFVSRTFSKVGGIDTAAEIMNNLDRTTEKKIMDKLVQENPELADEIRRRMFVFEDILKLDDRSIQLVLREVDTRDLALALKGASDELKEKIFKNMSKRAAALLKDELEYMGPVRLKDVEEAQQKIINIIRRLEEAGEIVIARGGGEELIM,soluble
12,MFSGFSSFGGGNGFVNMPQTFEEFFRCYPIAMMNDRIRKDDANFGGKIFLPPSALSKLSMLNIRYPMLFKLTANETGRVTHGGVLEFIAEEGRVYLPQWMMETLGIQPGSLLQISSTDVPLGQFVKLEPQSVDFLDISDPKAVLENVLRNFSTLTVDDVIEISYNGKTFKIKILEVKPESSSKSICVIETDLVTDFAPPVGYVEPDYKALKAQQDKEKKNSFGKGQVLDPSVLGQGSMSTRIDYAGIANSSRNKLSKFVGQGQNISGKAPKAEPKQDIKDMKITFDGEPAKLDLPEGQLFFGFPMVLPKEDEESAAGSKSSEQNFQGQGISLRKSNKRKTKSDHDSSKSKAPKSPEVIEID,soluble
13,MSCKPNILVLFYGYGSIVELAKEIGKGAEEAGAEVKIRRVRETLPPEFQSRIPFDKVKDIPEVTLDDMRWADGFAIGSPTRYGNMAGGLKTFLDTTAILWKDNVLYGKPVTFFTEASTVHGGHETTILTMSTYAYHFGMIIVPIGYGIPELFQTTTGGGPYGATHLGSKEELDEMERKIARFQGKRITEVAKAIKCCNK,soluble
14,MGSDKIHHHHHHMSDVMNNSQIATQDNNLINELKTLIASAKQQAQVQVNAQMTLLYWQLGHRLQEHLLSNQRADYAKQIVKQVAQQLTYEYGKGFNEKSLRKMMQFYQAFPQQEIVSTLSRQLSWSHFVELLPIKAPVAREFYLQMAINDRWSVRTLRNRIDSMLFERTAVSKKPDELIKLELAQLENKQLSANMILKDPYMLDFLGVQDHYFEKDLEDAILRDLQQFLLELGSGFSFIGRQHRVQIGYYDFYIDLLFYNRKLKRLVAIDLKLGNFKAAYKGQMELYLRYLAKYEQEADERPPLGIILCASKDQEQVELLELDKSGIHVAEYLTALPPKEVLQQKLHQAISQNQQRFLAVNALDKDAGIASDAEEK,not soluble
15,MIIGYARVSSLDQNLERQLENLKTFGAEKIFTEKQSGKSIENRPILQKALNFVRMGDRFIVESIDRLGRNYNEVIHTVNYLKDKEVQLMITSLPMMNEVIGNPLLDKFMKDLIIQILAMVSEQERNESKRRQAQGIQVAKEKGVYKGRPLLYSPNAKDPQKRVIYHRVVEMLEEGQAISKIAKEVNITRQTVYRIKHDNGLSSHHHHHH,soluble
16,MSLNARSYLEQQLTGQNANAANALALAITQSQADKAMAETLINATFDQGYFHHIRWQGADGKVRVDRVNEAVFPAAPGWFRALLPLSPQPGSALVTAGWMQAGEIRVEAALGYAYESLWRGALQTMLWLLGTGLLAGLLGSIDIFKLRRDLQRVVNQARAISEHRFQRMTEPKVPELARVVGAMNQMVERLQSFLGEQSEEVEQLRRERHTDPVTGLPNREALEQAVSSTLAEEDDVRGCLLLLRLAGLAELNQRLGGERADALLVRLAADLEDLAARRKGWMAARLRGADFAVFCPELDMDGGRQLAETLCEQLALYRQMGLSDRDGIGHIGVCGIVQGDGLASLLARASQALAEAEAAGDNQWRVDDGAGPDVGSEWDWRELIEAACREHSLRLRWFPVRDAARGILWQEGMLYRPPMDGLPAINAMRLVSHSLRLGLSHLADLEALRLALADAPGAALAVNLSPASLAARGFQWQVTEMLAGSRATVSFEFDEAGLDEHWAAFLAFGEAVKGAGHRLAVEIRGHRLELVARLNQAGIDYLVLDGALTRGIHRDEGRKVLVKGVQRMTSLMGARLIAKGVASEEDARLLLELRVDGLTGPAEGHHHHHH,not soluble
17,MGSDKIHHHHHHMSVLVVGMSHRSAPVALLEKLSMDDGVRTNTVSDLVARPSLAEAMIVSTCNRLEVYAMTSSFHTGVNDVVEVLHDMSGVDMEELRGYLYVRYADAAAEHMMEVTSGLDSMVVGEQQIIGQVRTAYHSATEAGTVGPALHGLVQASLHTGKRVHTETDIDDAGASMVSFACDEALAQMSATNFAGCRALVLGAGAMASLAATHLGRLGIEHITVANRTFERAQRLADHAVEAGVAASAIEFERRMDVLCDVDVVVSATGANTFTIEAANIPAAHGDLMMIDLSLPRDISDDVAEVPGVHLVNIEKLRDVASSGEAKDHAAQRIVAEELEAYTSAQRIRDVAPAVAALRRHASSLIDSELARLSTRVPSMDEDDFSEVQRTVRRVVDKLLHQPTVRVKELAAQSGTVSYDTAIQELFGLAVEATPVAVNVDELPERINKR,not soluble
18,MAKARAIVITGNGTNCEMEAAHACRLGGFDETVIAHISDILTGEIRLDDFHFLNLTGGFLDGDDLGSAKAQANRFRYARVDDLEEHLIDQIIRFIDAGKLILGVCNGFQLMTKMGLLPAVDGAYLAQTATLTFNACGRFQDRWVYLKVDQASPSIYTKGVETGLYLPIRHGEGKFVVDSPATLAAIEAKHLAVFTYSDETYSAPTMEFPLNPNGSVNAIAAVCNESGRLMGMMPHPEAFLHRTNHPRWTREDLPEEGDGLVLFRNAADYAKANLLLEHHHHHH,not soluble
19,MGSDKIHHHHHHMAVLITRPGERGERLVEMLNKAGIMALHLPLISIIAGQELNRLPNKLQQLNCGDYVVAVSKNAVEYAQKTLSAVGFCWRSDLYYFTVGQRTAEYFASQIENSVYYPVEQESSEGLLNLPQMQDLQARNILILRANGGREFFTEQAILRGAKVETLECYQRMPIEYNKLEKISLCQRIGVDTIVVTSQEMLNYLVKLVPTNETGWLFSCRLVTVSQRIAALAKSVGWTNIVVADKADNLSLFLALQQ,not soluble
